Assay results reported in the supplement of paper PMC7125110.
± gives the standard error. Fewer inactive variants are shown than the library holds.

B1: glmS ribozyme (parent)
chain: AUAAAAGCGCCAGAACUACAGAAAUGUAGUUGACGAGGAGGAGGUUUAUCGAAUUUUCGGCGGAUGCCUCCAAA

Key:
Conditions in all cases: with glucosamine-6-phosphate
[1] = variants of: B1; test: self-cleavage kobs at 160 uM GlcN6P; higher = faster cleavage; RNA array
How it was run: (§1)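 Using a hybridised Cy3 probe at 37 °C, barcoded ribozyme variants transcribed in situ by E. coli RNA polymerase on sequenced MiSeq chips were monitored across tiles imaged over ~14 h. The flow contained glucosamine-6-phosphate from 40 μM to 10 mM in HEPES/KCl/Mg(OAc)2 buffer. Signals were normalised to baseline and to non-cleaving reference variants before per-tile medians were fit to one- or two-exponential decays to yield kobs. Weighted Michaelis–Menten fits across concentrations gave kcat and KM.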

[2] = variants of: B1; test: self-cleavage kobs at 2500 uM GlcN6P; higher = faster cleavage; RNA array
How it was run: as §1

[3] = variants of: B1; test: self-cleavage kobs at 10000 uM GlcN6P; higher = faster cleavage; RNA array
How it was run: as §1

[4] = variants of: B1; test: self-cleavage kobs at 640 uM GlcN6P; higher = faster cleavage; RNA array
How it was run: as §1

[5] = variants of: B1; test: self-cleavage kobs at 40 uM GlcN6P; higher = faster cleavage; RNA array
How it was run: as §1

Row | Variant | self-cleavage kobs at 160 uM GlcN6P [1] [s⁻¹] | self-cleavage kobs at 2500 uM GlcN6P [2] [s⁻¹] | self-cleavage kobs at 10000 uM GlcN6P [3] [s⁻¹] | self-cleavage kobs at 640 uM GlcN6P [4] [s⁻¹] | self-cleavage kobs at 40 uM GlcN6P [5] [s⁻¹]
1 | A6G C8A A48C | < 1e-05 |  |  |  | 
2 | G7U G41U G59U A64G | < 1e-05 | < 1e-05 | < 1e-05 |  | 
3 | G7U G37U | < 1e-05 |  | < 1e-05 |  | 
4 | C8U G66C | < 1e-05 | < 1e-05 | < 1e-05 | < 1e-05 | 
5 | C8U G66U | < 1e-05 |  | < 1e-05 | < 1e-05 | 
6 | G9A U65G | < 1e-05 |  |  | < 1e-05 | 
7 | A64G U65C C68A |  | < 1e-05 | < 1e-05 |  | < 1e-05
8 | C8U G32U C50G | 0.000945 ± 0.00017 | 0.000269 ± 8.5e-05 |  | 0.000695 ± 0.00016 | 
9 | C8G G59A C70G | < 1e-05 |  |  |  | 
10 | C8A A15C C34A G38A C68G | 0.000422 ± 0.00011 | 0.00055 ± 0.00013 |  | 0.000341 ± 8.5e-05 | 
11 | G7A G9U C50U | < 1e-05 | < 1e-05 |  |  | 
12 | G9C A36C | < 1e-05 | < 1e-05 | < 1e-05 | < 1e-05 | 
13 | C8U U47C A48C C67G | < 1e-05 | < 1e-05 |  | < 1e-05 | 
14 | C70G | 0.000401 ± 9.4e-05 | 0.000576 ± 4.7e-05 | 0.00395 ± 0.00093 | 0.0014 ± 0.00021 | 0.000246 ± 5.2e-05
15 | C70A | 0.000416 ± 0.00014 | 0.000583 ± 4.1e-05 | 0.00384 ± 0.0011 | 0.00093 ± 0.00021 | 0.000267 ± 7.7e-05
16 | C70U | 0.00417 ± 0.00021 | 0.0161 ± 0.0012 | 0.0554 ± 0.0035 | 0.0095 ± 0.00039 | 0.00149 ± 4.2e-05
17 | C8U U30C G59U | < 1e-05 | < 1e-05 |  | < 1e-05 | 
18 | C8A C16A G40C U65G | < 1e-05 | < 1e-05 |  |  | 
19 | C8G C16A | < 1e-05 | < 1e-05 | < 1e-05 | < 1e-05 | 
20 | C8G C16G | < 1e-05 | < 1e-05 | < 1e-05 | < 1e-05 | 
21 | A6U G32C G62U | < 1e-05 |  |  |  | 
